Experimental data taken from patent US20250171562A1.

B1: NIgG4D2A1(RS) (Fc fusion)
chain 1: DVQLQESGGGLVEAGGSLRLSCVASGRTFSGWSMGWFRQAPGKEREFVAAISWVGSWIGGTVYSNSVKGRFTISRDNARTTVYLQMNSLKPEDTAVYFCAAANSETPRIFASEYDYWGQGTQVTVSRSGPPCPPCPAPEFLGGPSVFLFPPKPKDTLMISRTPEVTCVVVDVSQEDPEVQFNWYVDGVEVHNAKTKPREEQFNSTYRVVSVLTVLHQDWLNGKEYKCKVSNKGLPSSIEKTISKAKGQPREPQVYTLPPCQEEMTKNQVSLWCLVKGFYPSDIAVEWESNGQPENNYKTTPPVLDSDGSFFLYSRLTVDKSRWQEGNVFSCSVMHEALHNHYTQKSLSLSLGK
chain 2: EVQLLESGGGLVQPGGSLRLSCAASGFTFGNYDMAWVRQAPGKRPEWVSSIDTGGDITHYADSVKGRFTISRDNAKNTLYLQMNSLRPEDTAVYWCATDEEYALGPNEFDYYGQGTLVTVSSRSGPPCPPCPAPEFLGGPSVFLFPPKPKDTLMISRTPEVTCVVVDVSQEDPEVQFNWYVDGVEVHNAKTKPREEQFNSTYRVVSVLTVLHQDWLNGKEYKCKVSNKGLPSSIEKTISKAKGQPREPQVCTLPPSQEEMTKNQVSLSCAVKGFYPSDIAVEWESNGQPENNYKTTPPVLDSDGSFFLVSRLTVDKSRWQEGNVFSCSVMHEALHNHYTQKSLSLSLGK
B2: NIgG4D2A1(G4S)1 (Fc fusion)
chain 1: DVQLQESGGGLVEAGGSLRLSCVASGRTFSGWSMGWFRQAPGKEREFVAAISWVGSWIGGTVYSNSVKGRFTISRDNARTTVYLQMNSLKPEDTAVYFCAAANSETPRIFASEYDYWGQGTQVTVSGGGGSGPPCPPCPAPEFLGGPSVFLFPPKPKDTLMISRTPEVTCVVVDVSQEDPEVQFNWYVDGVEVHNAKTKPREEQFNSTYRVVSVLTVLHQDWLNGKEYKCKVSNKGLPSSIEKTISKAKGQPREPQVYTLPPCQEEMTKNQVSLWCLVKGFYPSDIAVEWESNGQPENNYKTTPPVLDSDGSFFLYSRLTVDKSRWQEGNVFSCSVMHEALHNHYTQKSLSLSLGK
chain 2: EVQLLESGGGLVQPGGSLRLSCAASGFTFGNYDMAWVRQAPGKRPEWVSSIDTGGDITHYADSVKGRFTISRDNAKNTLYLQMNSLRPEDTAVYWCATDEEYALGPNEFDYYGQGTLVTVSSGGGGSGPPCPPCPAPEFLGGPSVFLFPPKPKDTLMISRTPEVTCVVVDVSQEDPEVQFNWYVDGVEVHNAKTKPREEQFNSTYRVVSVLTVLHQDWLNGKEYKCKVSNKGLPSSIEKTISKAKGQPREPQVCTLPPSQEEMTKNQVSLSCAVKGFYPSDIAVEWESNGQPENNYKTTPPVLDSDGSFFLVSRLTVDKSRWQEGNVFSCSVMHEALHNHYTQKSLSLSLGK
B3: NIgG4D2A1(G4S)2 (Fc fusion)
chain 1: DVQLQESGGGLVEAGGSLRLSCVASGRTFSGWSMGWFRQAPGKEREFVAAISWVGSWIGGTVYSNSVKGRFTISRDNARTTVYLQMNSLKPEDTAVYFCAAANSETPRIFASEYDYWGQGTQVTVSGGGGSGGGGSGPPCPPCPAPEFLGGPSVFLFPPKPKDTLMISRTPEVTCVVVDVSQEDPEVQFNWYVDGVEVHNAKTKPREEQFNSTYRVVSVLTVLHQDWLNGKEYKCKVSNKGLPSSIEKTISKAKGQPREPQVYTLPPCQEEMTKNQVSLWCLVKGFYPSDIAVEWESNGQPENNYKTTPPVLDSDGSFFLYSRLTVDKSRWQEGNVFSCSVMHEALHNHYTQKSLSLSLGK
chain 2: EVQLLESGGGLVQPGGSLRLSCAASGFTFGNYDMAWVRQAPGKRPEWVSSIDTGGDITHYADSVKGRFTISRDNAKNTLYLQMNSLRPEDTAVYWCATDEEYALGPNEFDYYGQGTLVTVSSGGGGSGGGGSGPPCPPCPAPEFLGGPSVFLFPPKPKDTLMISRTPEVTCVVVDVSQEDPEVQFNWYVDGVEVHNAKTKPREEQFNSTYRVVSVLTVLHQDWLNGKEYKCKVSNKGLPSSIEKTISKAKGQPREPQVCTLPPSQEEMTKNQVSLSCAVKGFYPSDIAVEWESNGQPENNYKTTPPVLDSDGSFFLVSRLTVDKSRWQEGNVFSCSVMHEALHNHYTQKSLSLSLGK
B4: NIgG4D2A1(G4S)3 (Fc fusion)
chain 1: DVQLQESGGGLVEAGGSLRLSCVASGRTFSGWSMGWFRQAPGKEREFVAAISWVGSWIGGTVYSNSVKGRFTISRDNARTTVYLQMNSLKPEDTAVYFCAAANSETPRIFASEYDYWGQGTQVTVSGGGGSGGGGSGGGGSGPPCPPCPAPEFLGGPSVFLFPPKPKDTLMISRTPEVTCVVVDVSQEDPEVQFNWYVDGVEVHNAKTKPREEQFNSTYRVVSVLTVLHQDWLNGKEYKCKVSNKGLPSSIEKTISKAKGQPREPQVYTLPPCQEEMTKNQVSLWCLVKGFYPSDIAVEWESNGQPENNYKTTPPVLDSDGSFFLYSRLTVDKSRWQEGNVFSCSVMHEALHNHYTQKSLSLSLGK
chain 2: EVQLLESGGGLVQPGGSLRLSCAASGFTFGNYDMAWVRQAPGKRPEWVSSIDTGGDITHYADSVKGRFTISRDNAKNTLYLQMNSLRPEDTAVYWCATDEEYALGPNEFDYYGQGTLVTVSSGGGGSGGGGSGGGGSGPPCPPCPAPEFLGGPSVFLFPPKPKDTLMISRTPEVTCVVVDVSQEDPEVQFNWYVDGVEVHNAKTKPREEQFNSTYRVVSVLTVLHQDWLNGKEYKCKVSNKGLPSSIEKTISKAKGQPREPQVCTLPPSQEEMTKNQVSLSCAVKGFYPSDIAVEWESNGQPENNYKTTPPVLDSDGSFFLVSRLTVDKSRWQEGNVFSCSVMHEALHNHYTQKSLSLSLGK
B5: CIgG4D2A1(RS) (Fc fusion)
chain 1: GPPCPPCPAPEFLGGPSVFLFPPKPKDTLMISRTPEVTCVVVDVSQEDPEVQFNWYVDGVEVHNAKTKPREEQFNSTYRVVSVLTVLHQDWLNGKEYKCKVSNKGLPSSIEKTISKAKGQPREPQVYTLPPCQEEMTKNQVSLWCLVKGFYPSDIAVEWESNGQPENNYKTTPPVLDSDGSFFLYSRLTVDKSRWQEGNVFSCSVMHEALHNHYTQKSLSLSLGKRSDVQLQESGGGLVEAGGSLRLSCVASGRTFSGWSMGWFRQAPGKEREFVAAISWVGSWIGGTVYSNSVKGRFTISRDNARTTVYLQMNSLKPEDTAVYFCAAANSETPRIFASEYDYWGQGTQVTVS
chain 2: GPPCPPCPAPEFLGGPSVFLFPPKPKDTLMISRTPEVTCVVVDVSQEDPEVQFNWYVDGVEVHNAKTKPREEQFNSTYRVVSVLTVLHQDWLNGKEYKCKVSNKGLPSSIEKTISKAKGQPREPQVCTLPPSQEEMTKNQVSLSCAVKGFYPSDIAVEWESNGQPENNYKTTPPVLDSDGSFFLVSRLTVDKSRWQEGNVFSCSVMHEALHNHYTQKSLSLSLGKRSEVQLLESGGGLVQPGGSLRLSCAASGFTFGNYDMAWVRQAPGKRPEWVSSIDTGGDITHYADSVKGRFTISRDNAKNTLYLQMNSLRPEDTAVYWCATDEEYALGPNEFDYYGQGTLVTVSS
B6: CIgG4D2A1(G4S)1 (Fc fusion)
chain 1: GPPCPPCPAPEFLGGPSVFLFPPKPKDTLMISRTPEVTCVVVDVSQEDPEVQFNWYVDGVEVHNAKTKPREEQFNSTYRVVSVLTVLHQDWLNGKEYKCKVSNKGLPSSIEKTISKAKGQPREPQVYTLPPCQEEMTKNQVSLWCLVKGFYPSDIAVEWESNGQPENNYKTTPPVLDSDGSFFLYSRLTVDKSRWQEGNVFSCSVMHEALHNHYTQKSLSLSLGKGGGGSDVQLQESGGGLVEAGGSLRLSCVASGRTFSGWSMGWFRQAPGKEREFVAAISWVGSWIGGTVYSNSVKGRFTISRDNARTTVYLQMNSLKPEDTAVYFCAAANSETPRIFASEYDYWGQGTQVTVS
chain 2: GPPCPPCPAPEFLGGPSVFLFPPKPKDTLMISRTPEVTCVVVDVSQEDPEVQFNWYVDGVEVHNAKTKPREEQFNSTYRVVSVLTVLHQDWLNGKEYKCKVSNKGLPSSIEKTISKAKGQPREPQVCTLPPSQEEMTKNQVSLSCAVKGFYPSDIAVEWESNGQPENNYKTTPPVLDSDGSFFLVSRLTVDKSRWQEGNVFSCSVMHEALHNHYTQKSLSLSLGKGGGGSEVQLLESGGGLVQPGGSLRLSCAASGFTFGNYDMAWVRQAPGKRPEWVSSIDTGGDITHYADSVKGRFTISRDNAKNTLYLQMNSLRPEDTAVYWCATDEEYALGPNEFDYYGQGTLVTVSS

Target: mixture of three Der p 2 specific recombinant human IgE clones H10, H12, P4E (human) (UniProt P01854)
Sequence (P01854 other isoform, or with tags, fused parts or gaps): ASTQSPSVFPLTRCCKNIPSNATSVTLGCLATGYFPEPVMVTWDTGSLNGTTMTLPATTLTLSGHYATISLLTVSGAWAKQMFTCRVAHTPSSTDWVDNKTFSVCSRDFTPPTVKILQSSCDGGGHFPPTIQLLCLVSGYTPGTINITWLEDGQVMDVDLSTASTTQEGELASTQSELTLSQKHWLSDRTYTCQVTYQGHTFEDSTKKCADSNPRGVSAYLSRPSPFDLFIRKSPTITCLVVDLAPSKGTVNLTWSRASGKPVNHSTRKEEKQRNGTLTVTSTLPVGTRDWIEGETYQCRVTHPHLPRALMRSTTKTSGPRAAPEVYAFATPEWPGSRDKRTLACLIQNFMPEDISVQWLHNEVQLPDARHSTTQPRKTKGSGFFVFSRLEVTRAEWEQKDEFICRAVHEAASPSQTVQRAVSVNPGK
Assay: RBL-SX38 IgE displacement, FACS

| Binder | EC50 | Max effect/effect 1 µM |
| --- | --- | --- |
| B1 | 12.3 nM | 97% |
| B2 | 8.7 nM | 97% |
| B3 | 6.3 nM | 96% |
| B4 | 3.7 nM | 88% |
| B5 | – | 6% |
| B6 | 126 nM | 95% |
